Key:
Assay type in all cases: cell-based, human
[1] = system: parental PD-1negative NK-92 cells; assay: IL-18BP mediated inhibition of IFN gamma secretion in parental PD-1 negative NK-92 cells (Example 18); settings: IL-18BP-mediated inhibition of IFNγ secretion, IL-18 analyte 1 nM
Method: To characterize the resistance of anti-PD1-IL18 immunocytokines (IC) on PD-1 positive cells, the NK-92 cell line was used to generate a PD-1 expressing cell line and furthermore, to measure the inhibition of IFN[…] release upon incubation with IL-18 variants and ICs in the presence of increasing quantities of human IL-18BP.
On the day of experiment, parental PD-1^negative and PD-1^positive transduced cells were harvested and washed with PBS 1× and resuspended in medium (w/o IL-2) containing 1 ng/ml of recombinant human Interleukin-12 (SinoBiologicals, Cat #CT011-H08H). After counting, cells were seeded at 100 000 cells/well in a 384 well culture plate and incubated at 37° C./5% CO2. When indicated, cells were preincubated with anti-PD-1 antibody LZM-009 at 17 uM during 30 min at 37° C. […]
After 16-20 h incubation at 37° C./5% CO2, 5 μl of supernatant were carefully transferred to a 384 microwell OptiIPlate (Perkin Elmer; Cat #6007270) and Interferon-gamma (IFNγ) levels measured using the Human IFNγ AlphaLISA Assay Kit (Perkin Elmer, Cat #AL217C). […] AlphaLISA signal was then measured on an Enspire plate reader (Perkin Elmer) using 680 and 615 nm as excitation and emission wavelengths respectively. Half maximal inhibitory concentration (IC50) was calculated based on a variable slope, four parameter analysis using GraphPad PRISM software.

NK92 cells [2] = assay: IFN gamma secretion assay in NK92 cells (Example 10); settings: IFNγ secretion, 1 ng/ml IL-12
Method: The IFNγ-secretion stimulating activity of the unconjugated IL-18 variants and corresponding IL-18 immunocytokines was evaluated on NK92 cell line. The NK cell line NK-92 derived from a patient with lymphoma (ATCC, Cat #CRL-2407) was cultured in aMEM medium supplemented with 12.5% FCS, 12.5% horse serum (HS), 50 uM B-mercaptoEthanol, and 2 ng/ml of recombinant Human Interleukin-2 (IL-2).
On the day of experiment, cells were harvested and washed with aMEM medium without IL-2 and resuspended in medium (w/o IL-2) containing 1 ng/ml of recombinant human Interleukin-12 (SinoBiologicals, Cat #CT011-H08H). After counting, cells were seeded at 100 000 cells/well in a 384 well titer plate and incubated at 37° C./5% CO2. Sixteen 4-fold serial dilutions of IL-18 analytes were prepared in aMEM medium—1 ng/ml IL-12 and were added to the NK-92 cells. […]
After 16-20 h incubation at 37° C./5% CO2, 5 μl of supernatant were carefully transferred to a 384 microwells OPTIPlate (Perkin Elmer; Cat #6007270) and Interferon-gamma (IFNγ) levels measured using the Human IFNγ AlphaLISA Assay Kit (Perkin Elmer, Cat #AL217C). […] AlphaLisa signal was then measured on an Enspire plate reader (Perkin Elmer) using 680 and 615 nm as excitation and emission wavelengths respectively. Half maximal effective concentration (EC50) was calculated based on a variable slope, four parameter analysis using GraphPad PRISM software.

NK92 cells [3] = assay: Cellular IL-18 Binding Protein resistance assay in NK92 cells (Example 13); settings: IL-18BP-mediated inhibition of IFNγ secretion, IL-18 analyte 1 nM
Method: The NK cell line NK-92 derived from a patient with lymphoma (ATCC, Cat #CR^L-2407) was cultured in αMEM medium supplemented with 20% FCS-Glutamax, 25 μM B-mercaptoethanol, and 100 IU/ml of recombinant Human Interleukin-2 (IL-2). On the day of experiment, cells were harvested and washed with αMEM medium without IL-2. After counting, cells were seeded at 100 000 cells/well in a 384 well titer plate and incubated at 37° C./5% CO2. Sixteen 2-fold serial dilutions of Fc fused human IL-18 binding protein isoform a (IL-18BPa; R&D systems, Cat #119-BP) were prepared in αMEM medium—1 ng/ml IL-12 containing 2 nM of each IL-18 variants and were added to the NK-92 cells. Final IL-18 analytes concentration was 1 nM and final IL-18BPa concentrations ranged from to 566 nM down to 17 pM.
After 16-20 h incubation at 37° C./5% CO2, 5 μl of supernatant were carefully transferred to a 384 microwells OPTIplate (Perkin Elmer; Cat #6007270) and Interferon-gamma (IFNγ) levels measured using the Human IFNγ AlphaLISA Assay Kit (Perkin Elmer, Cat #AL217C). […] AlphaLisa signal was then measured on an Enspire plate reader (Perkin Elmer) using 680 and 615 nm as excitation and emission wavelengths respectively. Half maximal inhibitory concentration (IC50) was calculated based on a variable slope, four parameter analysis using GraphPad PRISM software.

- EC50 (NK92 cells [2]): 2 pM
- IC50 (NK92 cells [3]): 488 nM
B1: SEQ ID NO: 30: IL-18 polypeptide: E6K, V11I, C38A, K53A, T63A, C76A, C127A (protein)
chain: YFGKLKSKLSIIRNLNDQVLFIDQGNRPLFEDMTDSDARDNAPRTIFIISMYADSQPRGMAVAISVKCEKISTLSAENKIISFKEMNPPDNIKDTKSDIIFFQRSVPGHDNKMQFESSSYEGYFLAAEKERDLFKLILKKEDELGDRSIMFTVQNED
- IC50 [1]: 110 nM

Reference: patent US20250186597A1, “TARGETED IMMUNE ACTIVATION WITH IL-18 IMMUNOCYTOKINES” (BRIGHT PEAK THERAPEUTICS AG, priority 2023, published 2025)
